Reference: patent US20260242478A1 (published 2026)
Where no end group is shown, it is not given here.

Legend:
[1] = target: T1, Anti-CD28 Fab (SEQ ID NOs: 696, 697); assay: phage ELISA; Fab on plate pre-incubated with CD28 antigen as competitor, anti-M13 HRP detection
T1 construct: Used biotinylated and captured on neutravidin coated plates in the phage ELISA
T1 sequence (VH, as listed by the source, chain 1 of 2): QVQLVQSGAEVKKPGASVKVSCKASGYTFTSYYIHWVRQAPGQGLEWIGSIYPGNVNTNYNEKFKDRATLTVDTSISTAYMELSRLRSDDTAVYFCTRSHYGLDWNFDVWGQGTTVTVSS
T1 sequence (VL, as listed by the source, chain 2 of 2): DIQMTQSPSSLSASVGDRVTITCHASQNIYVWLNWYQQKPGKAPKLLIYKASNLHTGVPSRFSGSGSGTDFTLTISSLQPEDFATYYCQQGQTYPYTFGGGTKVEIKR
Method: (§1) After panning, phage infected bacteria were plated out and colonies picked into 96 well blocks. Clonal phage was then amplified and separated from bacterial cells via centrifugation.
(§2) Clonal phage were harvested as crude supematants and screened via standard ELISAs. […] Prior to the addition of clonal phage, wells were incubated with blocking buffer and CD28 antigen or blocking buffer alone. Without washing or aspirating, clonal phage supematants were then added to the wells and incubated for a short time. Wells were then washed followed by detection of bound phage using a horse radish conjugated anti-M13 antibody. Clonal phage of interest were then sent for sequence analysis.

[2] = target: T1, Anti-CD28 Fab (SEQ ID NOs: 696, 697); assay: phage ELISA; biotinylated Fab on neutravidin plate, clonal phage supernatant, anti-M13 HRP detection
Method: as §1, §2

[3] = target: Anti-CD28 Fab (SEQ ID NOs: 696, 697); assay: phage binding ELISA; Fab-coated wells pre-incubated with CD28 antigen as competitor, anti-M13 HRP detection;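 note: crude clonal phage supernatants added without washing after the CD28 pre-incubation, with wells given blocking buffer only (no CD28) as the reference, bound phage read after washing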
Target sequence in this assay (VH, as listed by the source, chain 1 of 2): as the sequence (VH, as listed by the source, chain 1 of 2) above
Target sequence in this assay (VL, as listed by the source, chain 2 of 2): as the sequence (VL, as listed by the source, chain 2 of 2) above
Method: as §2

[4] = target: Anti-CD28 Fab (SEQ ID NOs: 696, 697); assay: phage binding ELISA; biotinylated anti-CD28 Fab on neutravidin plate, clonal phage supernatant, anti-M13 HRP detection;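 note: wells pretreated with blocking buffer, either plus or minus CD28 antigen, then given crude phage supernatant briefly without washing in between, then washed before anti-M13 HRP readout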
Target sequence in this assay (VH, as listed by the source, chain 1 of 2): as the sequence (VH, as listed by the source, chain 1 of 2) above
Target sequence in this assay (VL, as listed by the source, chain 2 of 2): as the sequence (VL, as listed by the source, chain 2 of 2) above
Method: Clonal phage were harvested as crude supematants and screened via standard ELISAs. […] Prior to the addition of clonal phage, wells were incubated with blocking buffer and CD28 antigen or blocking buffer alone. Without washing or aspirating, clonal phage supematants were then added to the wells and incubated for a short time. Wells were then washed followed by detection of bound phage using a horse radish conjugated anti-M13 antibody.

[5] = target: T2, Anti-CD28 Fab (SEQ ID NOs: 696, 697) (biotinylated (site not given)); assay: phage binding ELISA on captured anti-CD28 Fab; competitor: CD28 antigen added to the wells before the phage
T2 sequence (VH, as listed by the source, chain 1 of 2): as the sequence (VH, as listed by the source, chain 1 of 2) above
T2 sequence (VL, as listed by the source, chain 2 of 2): as the sequence (VL, as listed by the source, chain 2 of 2) above

[6] = target: T2, Anti-CD28 Fab (SEQ ID NOs: 696, 697); assay: phage binding ELISA; biotinylated anti-CD28 Fab on neutravidin plate, clonal phage detected with anti-M13-HRP;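 note: crude clonal phage supernatants added briefly to wells preincubated in blocking buffer with or without CD28 antigen, then washed before detection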

| Binder | Phage binding ELISA, Anti-CD28 Fab signal in the presence of CD28 [1] | Phage binding ELISA, Anti-CD28 Fab (SEQ ID NOs: 696, 697) signal [2] | Anti-CD28 Fab signal in the presence of CD28 [3] | Anti-CD28 Fab (SEQ ID NOs: 696, 697) signal [4] | other results |
| --- | --- | --- | --- | --- | --- |
| YCEGHFGMYMSKCL (cysteine pairing not given here; also: fused to phage pIII protein, pIII and linker sequence not given here, Peptide-87 library clone on clonal phage (crude supernatant); not shown: fused to the pIII filament protein of the bacteriophage) [Phage-1280] | 0.07 | 0.73 | – | – | – |
| YCEGHLPWYMSKCL (cysteine pairing not given here; also: fused to phage pIII protein, pIII and linker sequence not given here, Peptide-87 library clone on clonal phage (crude supernatant); not shown: fused to the pIII filament protein of the bacteriophage) [Phage-1284] | 0.09 | 0.69 | – | – | – |
| MCSAGAMYSWPLCL [Phage-1365 peptide (Peptide-92 library sequence, SEQ ID NO: 1661)] | – | – | 0.08 | 2.29 | – |
| TCKAGATYLWPFCL [Phage-1373 peptide (Peptide-92 library sequence, SEQ ID NO: 1669)] | – | – | 0.08 | 2.23 | – |
| TCSAGATWSWPMCL [Phage-1368 peptide (Peptide-92 library sequence, SEQ ID NO: 1664)] | – | – | 0.09 | 2.26 | – |
| RCAAGASYPWPPCL [Phage-1372 peptide (Peptide-92 library sequence, SEQ ID NO: 1668)] | – | – | 0.05 | 2.25 | – |
| LCAAGATYPWPFCL [Phage-1366 peptide (Peptide-92 library sequence, SEQ ID NO: 1662)] | – | – | 0.07 | 2.28 | – |
| MCAAGATYPWPACL (cysteine pairing not given here; also: fused to phage pIII protein) [Phage-1361 peptide (Peptide-92 library sequence, SEQ ID NO: 1657)] | – | – | 0.06 | 2.3 | – |
| YCAGHLPQYVSKCL (cysteine pairing not given here; also: fused to phage pIII protein, pIII and linker sequence not given here, Peptide-87 library clone on clonal phage (crude supernatant); not shown: fused to the pIII filament protein of the bacteriophage) [Phage-1283] | 0.06 | 0.7 | – | – | – |
| TCSAGATYAWPFCL [Phage-1360 peptide (Peptide-92 library sequence, SEQ ID NO: 1656)] | – | – | 0.06 | 2.31 | – |
| LCSAGAMYPWPTCL [Phage-1369 peptide (Peptide-92 library sequence, SEQ ID NO: 1665)] | – | – | 0.07 | 2.25 | – |
| YCDGHHLEYIDKCL (cysteine pairing not given here; also: fused to phage pIII protein, pIII and linker sequence not given here, Peptide-87 library clone on clonal phage (crude supernatant); not shown: fused to the pIII filament protein of the bacteriophage) [Phage-1285] | 0.06 | 0.69 | – | – | – |
| WCKPGAPYKWPPCF [Phage-1389] | – | – | – | – | Anti-CD28 Fab signal in the presence of CD28 [5]: 0.07; Anti-CD28 Fab (SEQ ID NOs: 696, 697) signal [6]: 2.14 |
| TCAAGAHYSWPACF [Phage-1370 peptide (Peptide-92 library sequence, SEQ ID NO: 1666)] | – | – | 0.07 | 2.25 | – |
| TCAAGATYPWPSCL [Phage-1371 peptide (Peptide-92 library sequence, SEQ ID NO: 1667)] | – | – | 0.06 | 2.25 | – |
| TCSAGASYPWPLCL [Phage-1363 peptide (Peptide-92 library sequence, SEQ ID NO: 1659)] | – | – | 0.08 | 2.29 | – |
| YCAGHSVQYMYKCL (cysteine pairing not given here; also: fused to phage pIII protein, pIII and linker sequence not given here, Peptide-87 library clone on clonal phage (crude supernatant); not shown: fused to the pIII filament protein of the bacteriophage) [Phage-1279] | 0.06 | 0.74 | – | – | – |
| YCDGHLPRFMVKCL (cysteine pairing not given here; also: fused to phage pIII protein, pIII and linker sequence not given here, Peptide-87 library clone on clonal phage (crude supernatant); not shown: fused to the pIII filament protein of the bacteriophage) [Phage-1286] | 0.07 | 0.69 | – | – | – |
| SCKPGVANYWPWCL [Phage-1364 peptide (Peptide-92 library sequence, SEQ ID NO: 1660)] | – | – | 0.1 | 2.29 | – |
| TCAAGAMYTWPLCF [Phage-1390] | – | – | – | – | Anti-CD28 Fab signal in the presence of CD28 [5]: 0.09; Anti-CD28 Fab (SEQ ID NOs: 696, 697) signal [6]: 2.14 |
| SCAAGAMWPWPVCV [Phage-1362 peptide (Peptide-92 library sequence, SEQ ID NO: 1658)] | – | – | 0.13 | 2.29 | – |
| YCAGHMPQYMSKCL (cysteine pairing not given here; also: fused to phage pIII protein, pIII and linker sequence not given here, Peptide-87 library clone on clonal phage (crude supernatant); not shown: fused to the pIII filament protein of the bacteriophage) [Phage-1281] | 0.05 | 0.72 | – | – | – |
| MCAAGANYPWPQCL (cysteine pairing not given here; also: fused to phage pIII protein) [Phage-1367 peptide (Peptide-92 library sequence, SEQ ID NO: 1663)] | – | – | 0.08 | 2.28 | – |
| YCQGHALQYLQKCL (cysteine pairing not given here; also: fused to phage pIII protein, pIII and linker sequence not given here, Peptide-87 library clone on clonal phage (crude supernatant); not shown: fused to the pIII filament protein of the bacteriophage) [Phage-1282] | 0.08 | 0.71 | – | – | – |
| YCEGHAQQYMLKCL (cysteine pairing not given here; also: fused to phage pIII protein, pIII and linker sequence not given here, Peptide-87 library clone on clonal phage (crude supernatant); not shown: fused to the pIII filament protein of the bacteriophage) [Phage-1278] | 0.05 | 0.74 | – | – | – |
